This passage reports reverse-splicing fitness results from the RNAGym collection of RNA variant scans (doi:10.1093/molbev/msab373).

Sequences and labels used below:
B1: Azoarcus group I ribozyme (parent)
chain: GUGCCUUGCGCCGGGAAACCACGCAAGGGAUGGUGUCAAAUUCGGCGAAACCUAAGCGCCCGCCCGGGCGUAUGGCAACGCCGAGCCAAGCUUCGGCGCCUGCGCCGAUGAAGGUGUAGAGACUAGACGGCACCCACCUAAGGCAAACGCUAUGGUGAAGGCAUAGUCCAGGGAGUGGCGAAAGUCACACAAACCGG

Variants of B1 are the subject of the data set. Description: reverse-splicing fitness (ratio to wild type); higher = more active; in vitro selection; Mg2+ level not given. In outline:
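An in vitro group I ribozyme library with randomized positions was T7-transcribed and gel-purified. In triplicate, 10 pmol RNA in EPPS pH 7.5 was reacted with 50 pmoles of a 30-nt RNA substrate for 1 h at 37 °C across several added MgCl2 levels (1–48 mM), then stopped with EDTA. Products were reverse transcribed from a substrate-complementary primer, PCR-amplified and sequenced (HiSeq 4000). Fitness is a variant's read proportion after selection over that before, normalised to wild type.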
As to GUGCCUUGCGCCGGGAAACCACGCAAGGGAUGGUGUCAAAUUCGGCGAAACCUAAGCGCCCGCCCGGGCGUAUGGCAACGCAGAGCCAAGCUUCGGCGCCUGCGCCGAUGAAGGUGUAGAGACUAGACGGCACCCACCUAAGGCGAACGAUAUGGUGAAGGCAUAGUCGAGGGAGAGGCGAAAGUCACACAAACCGG, the reverse-splicing fitness turned out to be 0.0164. Regarding GUGCCUUGCGCCGGGAAACCACGCAAGGGAUGGUGUCAAAUUCGGCGAAACCUAAGCGCCCGCCCGGGCGUAUGGCAACGCAGAGCCAAGCUUCGGCGCCUGCGCCGAUGAAGGUGUAGAGACUAGACGGCACCCACCUAAGGCGAACGGUAUGGUGAAGGCAUAGUCAAGGGAGUGGCGAAAGUCACACAAACCGG, the reverse-splicing fitness was 0.00856. For GUGCCUUGCGCCGGGAAACCACGCAAGGGAUGGUGUCAAAUUCGGCGAAACCUAAGCGCCCGCCCGGGCGUAUGGCAACGCAGAGCCAAGCUUCGGCGCCUGCGCCGAUGAAGGUGUAGAGACUAGACGGCACCCACCUAAGGCCAACGCUAUGGUGAAGGCAUAGUCUAGGGAGGGGCGAAAGUCACACAAACCGG, the reverse-splicing fitness is 0.00467. With GUGCCUUGCGCCGGGAAACCACGCAAGGGAUGGUGUCAAAUUCGGCGAAACCUAAGCGCCCGCCCGGGCGUAUGGCAACGCAGAGCCAAGCUUCGGCGCCUGCGCCGAUGAAGGUGUAGAGACUAGACGGCACCCACCUAAGGCCAACGCUAUGGUGAAGGCAUAGUCUAGGGAGAGGCGAAAGUCACACAAACCGG, the reverse-splicing fitness came out at 0.0128. As to GUGCCUUGCGCCGGGAAACCACGCAAGGGAUGGUGUCAAAUUCGGCGAAACCUAAGCGCCCGCCCGGGCGUAUGGCAACGCAGAGCCAAGCUUCGGCGCCUGCGCCGAUGAAGGUGUAGAGACUAGACGGCACCCACCUAAGGCCAACGCUAUGGUGAAGGCAUAGUCUAGGGAGCGGCGAAAGUCACACAAACCGG, the reverse-splicing fitness was 0.0108. Consider GUGCCUUGCGCCGGGAAACCACGCAAGGGAUGGUGUCAAAUUCGGCGAAACCUAAGCGCCCGCCCGGGCGUAUGGCAACGCAGAGCCAAGCUUCGGCGCCUGCGCCGAUGAAGGUGUAGAGACUAGACGGCACCCACCUAAGGCCAACGCUAUGGUGAAGGCAUAGUCGAGGGAGGGGCGAAAGUCACACAAACCGG, for which the reverse-splicing fitness came out at 0.00402. For the variant GUGCCUUGCGCCGGGAAACCACGCAAGGGAUGGUGUCAAAUUCGGCGAAACCUAAGCGCCCGCCCGGGCGUAUGGCAACGCAGAGCCAAGCUUCGGCGCCUGCGCCGAUGAAGGUGUAGAGACUAGACGGCACCCACCUAAGGCGAACGGUAUGGUGAAGGCAUAGUCAAGGGAGCGGCGAAAGUCACACAAACCGG, the reverse-splicing fitness came out at 0.0124. Turning to GUGCCUUGCGCCGGGAAACCACGCAAGGGAUGGUGUCAAAUUCGGCGAAACCUAAGCGCCCGCCCGGGCGUAUGGCAACGCAGAGCCAAGCUUCGGCGCCUGCGCCGAUGAAGGUGUAGAGACUAGACGGCACCCACCUAAGGCGAACGGUAUGGUGAAGGCAUAGUCAAGGGAGAGGCGAAAGUCACACAAACCGG, the reverse-splicing fitness worked out at 0.015. In the case of GUGCCUUGCGCCGGGAAACCACGCAAGGGAUGGUGUCAAAUUCGGCGAAACCUAAGCGCCCGCCCGGGCGUAUGGCAACGCAGAGCCAAGCUUCGGCGCCUGCGCCGAUGAAGGUGUAGAGACUAGACGGCACCCACCUAAGGCGAACGGUAUGGUGAAGGCAUAGUCAAGGGAGGGGCGAAAGUCACACAAACCGG, the reverse-splicing fitness was 0.00857.

As for GUGCCUUGCGCCGGGAAACCACGCAAGGGAUGGUGUCAAAUUCGGCGAAACCUAAGCGCCCGCCCGGGCGUAUGGCAACGCAGAGCCAAGCUUCGGCGCCUGCGCCGAUGAAGGUGUAGAGACUAGACGGCACCCACCUAAGGCGAACGAUAUGGUGAAGGCAUAGUCUAGGGAGCGGCGAAAGUCACACAAACCGG, the reverse-splicing fitness amounted to 0.0137. Consider GUGCCUUGCGCCGGGAAACCACGCAAGGGAUGGUGUCAAAUUCGGCGAAACCUAAGCGCCCGCCCGGGCGUAUGGCAACGCAGAGCCAAGCUUCGGCGCCUGCGCCGAUGAAGGUGUAGAGACUAGACGGCACCCACCUAAGGCGAACGAUAUGGUGAAGGCAUAGUCUAGGGAGAGGCGAAAGUCACACAAACCGG, for which the reverse-splicing fitness was determined as 0.0138. As to GUGCCUUGCGCCGGGAAACCACGCAAGGGAUGGUGUCAAAUUCGGCGAAACCUAAGCGCCCGCCCGGGCGUAUGGCAACGCAGAGCCAAGCUUCGGCGCCUGCGCCGAUGAAGGUGUAGAGACUAGACGGCACCCACCUAAGGCGAACGAUAUGGUGAAGGCAUAGUCUAGGGAGGGGCGAAAGUCACACAAACCGG, the reverse-splicing fitness was found to be 0.00699. For GUGCCUUGCGCCGGGAAACCACGCAAGGGAUGGUGUCAAAUUCGGCGAAACCUAAGCGCCCGCCCGGGCGUAUGGCAACGCAGAGCCAAGCUUCGGCGCCUGCGCCGAUGAAGGUGUAGAGACUAGACGGCACCCACCUAAGGCGAACGCUAUGGUGAAGGCAUAGUCCAGGGAGUGGCGAAAGUCACACAAACCGG the value was 0.631; for GUGCCUUGCGCCGGGAAACCACGCAAGGGAUGGUGUCAAAUUCGGCGAAACCUAAGCGCCCGCCCGGGCGUAUGGCAACGCAGAGCCAAGCUUCGGCGCCUGCGCCGAUGAAGGUGUAGAGACUAGACGGCACCCACCUAAGGCGAACGAUAUGGUGAAGGCAUAGUCCAGGGAGUGGCGAAAGUCACACAAACCGG, 0.0995. Regarding GUGCCUUGCGCCGGGAAACCACGCAAGGGAUGGUGUCAAAUUCGGCGAAACCUAAGCGCCCGCCCGGGCGUAUGGCAACGCAGAGCCAAGCUUCGGCGCCUGCGCCGAUGAAGGUGUAGAGACUAGACGGCACCCACCUAAGGCGAACGGUAUGGUGAAGGCAUAGUCCAGGGAGUGGCGAAAGUCACACAAACCGG, the reverse-splicing fitness was 0.0693.
